Measurements published in patent publication US6548634B1, “Synthetic peptides having FGF receptor affinity” (priority 1998, dated 2003).

Experiments:
[1] = Binding to heparin agarose beads
[2] = test system: control L6 cells; assay: c-fos mRNA expression in control L6 cells that do not express FGFR; format: cell-based
[3] = test system: PC12 cells; assay: PC12 cell neurite outgrowth; format: cell-based
Procedure: 1×10^4 PC12 cells per well were plated on mouse laminin-and-poly-L-lysine-coated 24-well plates in 1 ml of media (RPMI 1640, 10% horse serum, 5% FCS, antibiotics) and stimulated with 1 nM bFGF or 2 nM C19-jun protein in the presence of 15 U/ml heparin for 4 days.

[4] = biological target: T1, FGFR1c ECD (Homo sapiens, UniProt P11362); assay: BIAcore real-time kinetic analysis on immobilized FGFR1c ECD; format: binding; conditions: in vitro, absence of heparin
T1 construct: human FGFR Ic (residues 1-377); made in house
T1 sequence (P11362 22-377): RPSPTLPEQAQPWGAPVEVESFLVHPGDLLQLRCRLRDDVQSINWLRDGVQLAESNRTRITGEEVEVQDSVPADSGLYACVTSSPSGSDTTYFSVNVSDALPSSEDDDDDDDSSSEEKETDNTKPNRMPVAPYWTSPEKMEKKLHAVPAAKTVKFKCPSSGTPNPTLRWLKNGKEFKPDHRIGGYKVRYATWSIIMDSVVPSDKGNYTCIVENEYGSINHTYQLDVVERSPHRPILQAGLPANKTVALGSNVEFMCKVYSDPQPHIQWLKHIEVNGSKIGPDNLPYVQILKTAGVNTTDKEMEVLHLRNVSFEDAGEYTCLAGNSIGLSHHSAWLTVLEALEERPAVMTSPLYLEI
Procedure: Apparent affinities for immobilized FGFR1c ECD were determined using BIAcore real-time kinetic analysis in the absence of heparin.
Protein representing the linker segments and c-jun leucine zipper without the C19 sequence (FIG. 2) was expressed, purified, and characterized as for C19jun. C19 peptide with an intrapeptide disulfide bond was synthesized, purified by HPLC, and characterized by mass spectroscopy. C19junΔhep protein was prepared by changing human c-jun residues Arg276, Arg279, Lys285, and Lys288 in the leucine zipper domain to glutamines. Expression, purification, and characterization was as for C19jun. […] The extracellular ligand-binding domain of human FGFR Ic (residues 1-377) and human erythropoietin receptor (residues 1-250) were fused to the Fc region of human IgG1, expressed in baculovirus and purified by protein A affinity chromatography. […] PDGF receptor Fc fusion protein was from R&D Systems.

[5] = test system: Swiss 3T3 cells; assay: Swiss 3T3 proliferation, WST-1 long term assay; format: cell-based; conditions: WST-1, 4 successive days, 15 U/ml heparin, FIG. 4
Procedure: Swiss 3T3 cells were plated on gelatin-coated 96-well microtiter plates in quiescent media containing the indicated concentrations of bFGF or C19-jun protein and 15 U/ml heparin and cell number estimated on each of 4 successive days by the WST-1 assay as per manufacturers instructions (Cell proliferation Reagent WST-1, no. 1644807, Boehringer-Mannheim).

[6] = test system: human endothelial cells; assay: Proliferation of human endothelial cells; format: cell-based
[7] = test system: Swiss 3T3 fibroblasts; assay: BrdU incorporation (mitogenesis) in Swiss 3T3 fibroblasts; format: cell-based; conditions: Swiss 3T3, presence and absence of heparin
Procedure: 6×Histidine-tagged Clone 19-jun protein (FIG. 1A) was expressed in bacteria and purified by metal affinity chromatography as described in Example 5. Assay of BrdU incorporation, a measure of entry of cells into S-phase and therefore of mitogenesis, was performed according to manufacturers instructions (Cell proliferation ELISA, BrdU, Cat. No. 1-647-229, Boehringer-Mannheim, Indianapolis, Ind.). Briefly, 1×10^4 Swiss 3T3 cells per well were plated on gelatin-coated 96-well microtiter plates in complete media (DMEM, 10% FCS, antibiotics), incubated 24 hours, and the media changed to quiescent media for an addition 24 hours (DMEM containing 0.5 mg/ml bovine serum albumin, 1 μg/ml insulin, 5 μg/ml transferrin, antibiotics). The cells were then treated with bFGF or Clone 19-jun protein at the indicated concentrations in the presence of 15 U/ml heparin. 18 hours later, BrdU was added, the cells incubated an additional 4 hours, and assayed as described. […] Heparin alone had no effect, nor did a control protein expressed and purified in the same manner in which the C19 sequence was deleted.

[8] = test system: FGFR; assay: FGFR autophosphorylation in Swiss 3T3 cells (anti-FGFR IP, anti-phosphotyrosine blot); format: cell-based; conditions: 1.0 nM bFGF or 50 nM C19jun, 15 U/ml heparin, 15 minutes
Procedure: (§1) To determine whether C19jun could activate FGF receptors in vivo, Swiss 3T3 cells were treated with basic FGF (bFGF) or purified C19jun protein. Cell extracts were then immunoprecipitated with anti-FGFR antibodies, analyzed by SDS-PAGE and immunoblotted with anti-phosphotyrosine antibodies. Extracts from bFGF and C19jun-stimulated 293 cells expressing FGFR1c were also immunoblotted with phospho-MAP Kinase-specific antibodies.
(§2) Swiss 3T3 fibroblasts, or 293 cells expressing full-length FGFRIc were incubated in quiescing media (DMEM, 1 μg/ml insulin, 5 μg/ml transferrin, 0.5 mg/ml BSA) for 24-48 hrs, and then stimulated with 1.0 nM bFGF or 50 nM refolded C19jun protein in the presence of 15 U/ml heparin for 15 minutes at 37° C. The cells were lysed and aliquots of lysate containing equal amounts of total protein were either analyzed directly by immunoblotting with phospho-MAPKspecific antibodies and anti-total MAPK antisera (New England Biolabs) or immunoprecipitated with anti-FGFR antisera and immunoblotted with anti-phosphotyrosine antibodies (Upstate Biotechnology, Inc.). Both bFGF and C19jun induced FGFR autophosphorylation and MAP kinase phosphorylation.

[9] = test system: 293 cells expressing full-length FGFR1c; assay: MAP kinase phosphorylation in 293 cells expressing FGFR1c; format: cell-based; conditions: 1.0 nM bFGF or 50 nM C19jun, 15 U/ml heparin, 15 minutes
Procedure: as §1, §2

[10] = test system: L6 myoblast cell lines stably expressing FGFR1c; assay: c-fos mRNA expression in L6 myoblasts stably expressing FGFR1c; format: cell-based
[11] = test system: Swiss 3T3 cells; assay: Swiss 3T3 mitogenesis with soluble receptor ECD competitors; format: cell-based
Procedure: To further examine the specificity of C19jun for FGFR, Swiss 3T3 cells were stimulated with C19jun in the presence of protein representing the soluble extracellular binding domain (ECD) of various receptors used as binding competitors. The mitogenic activity of C19jun was abolished by pre-incubation of the fusion protein with excess FGFR1c ECD, but was unaffected by incubation with identical concentrations of the closely related PDGF receptor ECD or with erythropoietin receptor ECD. […] Similar results were observed when phosphorylation of MAPK was analyzed in these cells.
Protein representing the linker segments and c-jun leucine zipper without the C19 sequence (FIG. 2) was expressed, purified, and characterized as for C19jun. C19 peptide with an intrapeptide disulfide bond was synthesized, purified by HPLC, and characterized by mass spectroscopy. C19junΔhep protein was prepared by changing human c-jun residues Arg276, Arg279, Lys285, and Lys288 in the leucine zipper domain to glutamines. Expression, purification, and characterization was as for C19jun. […] The extracellular ligand-binding domain of human FGFR Ic (residues 1-377) and human erythropoietin receptor (residues 1-250) were fused to the Fc region of human IgG1, expressed in baculovirus and purified by protein A affinity chromatography. Activity of the fusion proteins was confirmed by binding of [^125I]-labeled ligands. PDGF receptor Fc fusion protein was from R&D Systems.

[12] = Swiss 3T3, identical concentration

B1: C19jun: C19 sequence fused via flexible linker to human c-jun leucine zipper (residues 276-314) flanked by cysteines, polyhistidine tag; SEQ ID NO:41 (protein)
chain: MAESGDDYCVLVFTDSAWTKICDWSHFRNGPGGGSGGGSGGGSGGGSGGGSRCGGRIARLEEKVKTLKAQNSELASTANMLREQVAQLKQKVMNHGGCGGSGGHHHHHH
modifications: SyArtificial Sequence
heparin binding [1]: quantitatively and specifically bound to heparin agarose beads
c-fos mRNA expression in control L6 cells [2]: neither was active
heparin dependence of morphogenic activity on PC12 cells [3]: required for the morphogenic activity
neurite outgrowth / PC12 cell differentiation ([3]; 1 nM bFGF or 2 nM C19-jun, 15 U/ml heparin, 4 days): induces PC12 cell differentiation as well or better than bFGF
binding to immobilized FGFR ECD [4]: high affinity and specificity
Swiss 3T3 proliferation in long term assay [5]: equal or greater extent than 1 nM bFGF
Swiss 3T3 proliferation in long term assay ([5]; listed as C19-jun): as well or better than bFGF
proliferation of human endothelial cells [6]: stimulated the proliferation
heparin dependence of mitogenic activity [7]: required for optimal mitogenic activity
FGFR autophosphorylation [8]: induced
MAP kinase phosphorylation [9]: induced
c-fos mRNA expression in FGFR-expressing L6 cells [10]: stimulated c-fos mRNA expression
mitogenic activity after pre-incubation with excess FGFR1c ECD ([11]; Swiss 3T3): abolished
mitogenic activity after incubation with PDGF receptor ECD [11, 12]: unaffected
mitogenic activity after incubation with erythropoietin receptor ECD [11, 12]: unaffected
